Reference: article PMC9294231, “gC1qR/C1qBP/HABP-1: Structural Analysis of the Trimeric Core Region, Interactions With a Novel Panel of Monoclonal Antibodies, and Their Influence on Binding to FXII” (Frontiers in Immunology, 2022)
One block for each molecule: values may come before it.

Experiments:
[1] = target: HKH-20 HKH-20 peptide (Homo sapiens) (UniProt P01042); assay: ITC; details: cited from earlier work
[2] = target: gC1qR-D1 (loop 1 deletion mutant) (human) (UniProt Q07021); assay: SEC; analytical gel filtration of purified gC1qR proteins on Superdex 200 Increase 10/300 GL, compared to size standards (670, 66, 13 kDa)
wild-type gC1qR (human) [3] = target: wild-type gC1qR (human) (UniProt Q07021); assay: as above
[4] = target: gC1qR-DD-avi, enzymatically biotinylated (human) (UniProt Q07021); assay: SPR; enzymatically biotinylated gC1qR-avi or gC1qR-DD-avi captured to 100 RU on an SA chip; FXII or FXIIa injected 1.6 to 800 nM; 25°C, HBS-T with 50 µM ZnCl2; ligand heterogeneity model with two independent binding sites; apparent
[5] = target: gC1qR-avi, enzymatically biotinylated (human) (UniProt Q07021); assay: as above
gC1qR-D2 (human) [6] = target: gC1qR-D2 (human) (UniProt Q07021); assay: SEC; gel filtration on Superdex S200 in PBS (pH 7.4); solution behaviour shown in Figure S1 (not shown to me)
gC1qR-D1 (human) [7] = target: gC1qR-D1 (human) (UniProt Q07021); assay: as above
[8] = target: gC1qR-D2 (loop 2 deletion mutant) (human) (UniProt Q07021); assay: SEC; analytical gel filtration of purified gC1qR proteins on Superdex 200 Increase 10/300 GL, compared to size standards (670, 66, 13 kDa)
[9] = target: T1, wild-type gC1qR (residues 74-282) (human, UniProt Q07021 74-282); assay: SEC; gel filtration on Superdex S200 in PBS (pH 7.4); solution behaviour shown in Figure S1 (not shown to me)
T1 construct: gC1qR/C1qBP/HABP-1, human, residues 74-282 (the mature form of the 282-residue pre-pro protein); Expressed from vector pT7HMT; the tag was removed with TEV protease; also called C1qBP; HABP-1; source: E. coli BL21(DE3), purified (NiNTA, TEV digestion, gel filtration Superdex S200)
T1 sequence (looked up): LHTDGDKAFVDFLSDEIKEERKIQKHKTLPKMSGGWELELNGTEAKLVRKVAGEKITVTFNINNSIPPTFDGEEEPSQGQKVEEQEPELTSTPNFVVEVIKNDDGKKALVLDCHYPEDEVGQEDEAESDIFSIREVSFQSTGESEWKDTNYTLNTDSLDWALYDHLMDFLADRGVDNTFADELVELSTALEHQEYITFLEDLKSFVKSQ

[10] = target: gC1qR-DD (double loop deletion mutant) (human) (UniProt Q07021); assay: SEC; analytical gel filtration of purified gC1qR proteins on Superdex 200 Increase 10/300 GL, compared to size standards (670, 66, 13 kDa)
wild-type gC1qR (human) [11] = target: wild-type gC1qR (human) (UniProt Q07021); assay: SEC; analytical gel filtration (Superdex 200 Increase 10/300 GL) of purified FXII, wild-type gC1qR and gC1qR/FXII in a Zn++-containing buffer, compared to size standards
gC1qR-DD (human) = gC1qR-DD (human) (UniProt Q07021); assay: SEC; gel filtration on Superdex S200 in PBS (pH 7.4); solution behaviour shown in Figure S1 (not shown to me)
gC1qR-D1 (human) [12] = target: gC1qR-D1 (human) (UniProt Q07021); assay: SPR; gC1qR proteins amine-coupled to a CMD200M chip (gC1qR 361 RU, D1 487 RU, D2 360 RU, DD 874 RU); HKH-20 injected 46.9 nM to 10 µM; 25°C, HBS-T (20 mM HEPES pH 7.4, 140 mM NaCl, 0.005% Tween-20); affinity (dose/response) model, apparent KD
gC1qR-D2 (human) [13] = target: gC1qR-D2 (human) (UniProt Q07021); assay: as above
[14] = target: T1, wild-type gC1qR (residues 74-282); assay: as above; details: both partners purified

Molecule: gC1qR (from UniProt Q07021)
- Kd [1]: 6300 nM

Molecule: gC1qR-D1 (loop 1 deletion mutant) (from UniProt Q07021 74-282) (domain or fragment)
- stoichiometry N [2]: 3

Molecule: gC1qR-D2 (from UniProt Q07021 74-189; Q07021 202-282) (natural protein)
- stoichiometry N (gC1qR-D2 (human) [6]): 3

Molecule: native coagulation factor XII (FXII) (natural protein)
- KD-1 (first binding site) [4]: 1.69 nM
- KD-2 (second binding site) [4]: 26.4 nM
- ka-1 (first binding site) [4]: 674000 M⁻¹ s⁻¹
- ka-2 (second binding site) [4]: 34800 M⁻¹ s⁻¹
- kd-1 (first binding site) [4]: 0.00114 s⁻¹
- kd-2 (second binding site) [4]: 0.00091 s⁻¹
- KD-1 (first binding site) [5]: 4.85 nM
- KD-2 (second binding site) [5]: 97.6 nM
- ka-1 (first binding site) [5]: 676000 M⁻¹ s⁻¹
- ka-2 (second binding site) [5]: 23700 M⁻¹ s⁻¹
- kd-1 (first binding site) [5]: 0.00316 s⁻¹
- kd-2 (second binding site) [5]: 0.0023 s⁻¹

Molecule: gC1qR-D1 (from UniProt Q07021 74-138; Q07021 164-282) (natural protein)
- stoichiometry N (gC1qR-D1 (human) [7]): 3

Molecule: gC1qR-D2 (loop 2 deletion mutant) (from UniProt Q07021 74-282) (domain or fragment)
- stoichiometry N [8]: 3

Molecule: wild-type gC1qR (residues 74-282) (from UniProt Q07021 74-282) (natural protein; other documents disagree on this pair)
- stoichiometry N [9]: 3

Molecule: Factor XII (native) (natural protein)
- stoichiometry N (FXII monomer per gC1qR trimer) (wild-type gC1qR (human) [11]): 1

B1: peptide HKH-20 (peptide)
peptide: HKHGHGHGKHKNKGKKNGKH
notes: The discussion speaks of peptides derived from HMWK residues 493-516 in general; also called HKH-20 peptide; source: synthetic peptide (GenScript)
- Kd (gC1qR-D1 (human) [12]): 10000 nM
- Kd (gC1qR-D2 (human) [13]): 10000 nM
- Kd [14]: 8700 nM

Second part, the molecule after the results:

- stoichiometry N (wild-type gC1qR (human) [3]): 3
Molecule: wild-type gC1qR (from UniProt Q07021 74-282) (domain or fragment; other documents disagree on this pair)

- KD-1 (first binding site) [4]: 0.12 nM
- KD-2 (second binding site) [4]: 178 nM
- ka-1 (first binding site) [4]: 1.13e+06 M⁻¹ s⁻¹
- ka-2 (second binding site) [4]: 63700 M⁻¹ s⁻¹
- kd-1 (first binding site) [4]: 0.000147 s⁻¹
- kd-2 (second binding site) [4]: 0.0112 s⁻¹
- KD-1 (first binding site) [5]: 0.27 nM
- KD-2 (second binding site) [5]: 134 nM
- ka-1 (first binding site) [5]: 408000 M⁻¹ s⁻¹
- ka-2 (second binding site) [5]: 48200 M⁻¹ s⁻¹
- kd-1 (first binding site) [5]: 9e-05 s⁻¹
- kd-2 (second binding site) [5]: 0.0063 s⁻¹
Molecule: activated Factor XIIa (FXIIa) (enzyme)

- stoichiometry N [10]: 3
Molecule: gC1qR-DD (double loop deletion mutant) (from UniProt Q07021 74-282) (domain or fragment)

- stoichiometry N (gC1qR-DD (human)): 3
Molecule: gC1qR-DD (from UniProt Q07021 74-138; Q07021 164-189; Q07021 202-282) (natural protein)
